From patent US20160297857A1 come the findings set out here.

The target in this assay is PA1b-binding site. Briefly: ligand binding assay with 125I-labeled toxin.
Take DECWGPCSVLQTPPCPLSKCYCIPLFLVVGYCSHASS [DS37]: the Ki was 694 nM. For AKCGEACDTQFNFCNAGDGCRCFITDAYLTLPGFCAQLST [AS40] the value was 10.3 nM; for ASCPNVGAVCSPFETKPCGNVKDCRCLPWGLFFGTCINPTG [AG41], 1.3 nM. To ADCSGICSPFEMPPCRSSDCRCIPIALIGGFCINPIS [AS37] belongs 15 nM; to EFCSSVGSFCSPFNTNPCGYLGNCRCVPYYLYGGTCENPFG [EG41], 72.8 nM; to ASCNGVCSPFEMPPCGTSACRCIPVGLVIGYCRNPSG [PA1b polypeptide of Pisum sativum], 17 nM.

The term Ki denotes a measure of affinity in units of concentration, obtained from inhibition or displacement. Higher therefore signals weaker binding.
